For orientation: Ki means a measure of affinity in units of concentration, obtained from inhibition or displacement. A lower Ki goes with a stronger hold on the target. By koff is commonly meant a measure of how fast the partners let go of each other.

One assay has as its target T1, subtilisin Carlsberg (UniProt P00780 106-379).
T1 sequence (looked up): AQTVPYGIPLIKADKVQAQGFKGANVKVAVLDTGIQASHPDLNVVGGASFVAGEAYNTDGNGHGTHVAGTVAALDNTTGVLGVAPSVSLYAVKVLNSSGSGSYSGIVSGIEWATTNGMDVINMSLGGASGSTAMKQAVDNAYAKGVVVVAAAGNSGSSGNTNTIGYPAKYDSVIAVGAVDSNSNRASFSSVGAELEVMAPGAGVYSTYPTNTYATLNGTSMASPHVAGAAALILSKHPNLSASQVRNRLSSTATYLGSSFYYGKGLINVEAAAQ
Put plainly: enzyme inhibition.

Assay [1] deals with T2, secreted, soluble Kex2 (Saccharomyces cerevisiae, UniProt P13134 114-613, limits assumed).
T2 construct: Secreted, soluble construct; also called kexin
T2 sequence (looked up): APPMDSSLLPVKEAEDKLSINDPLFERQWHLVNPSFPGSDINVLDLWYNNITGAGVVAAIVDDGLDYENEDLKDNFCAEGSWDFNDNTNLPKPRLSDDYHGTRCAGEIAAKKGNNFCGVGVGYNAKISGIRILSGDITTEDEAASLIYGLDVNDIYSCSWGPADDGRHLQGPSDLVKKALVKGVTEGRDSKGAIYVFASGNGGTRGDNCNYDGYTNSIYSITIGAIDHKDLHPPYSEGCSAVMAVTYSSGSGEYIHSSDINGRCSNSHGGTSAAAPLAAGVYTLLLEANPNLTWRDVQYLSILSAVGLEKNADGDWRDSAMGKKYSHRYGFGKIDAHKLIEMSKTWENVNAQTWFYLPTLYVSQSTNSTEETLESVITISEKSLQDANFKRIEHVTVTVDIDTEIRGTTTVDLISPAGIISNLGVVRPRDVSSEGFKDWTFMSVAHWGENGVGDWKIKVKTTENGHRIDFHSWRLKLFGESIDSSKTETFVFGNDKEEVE
The experiment in a line: estimated from koff. As to the method: (§1) In some aspects of the present invention, biological application of the eglin c variants of the present invention as inhibitors of processing in vivo depends upon the rate of binding to target enzymes, where it is critical. Therefore, the rate of action of eglin variants with Kex2 and furin was examined by incubating 5×10⁻¹⁰ M enzyme with inhibitor at molar ratios of inhibitor to enzyme ranging from 10 to 80. […] The relationship between kobs and inhibitor concentration was linear. The values of kₒₙ were determined from the slope of such curves, and dissociation rate constants (koff) were calculated (koff=kₒₙ/Kₐ). For R4R1-eglin, koff was calculated to be 2×10⁻⁴s⁻¹ for Kex2, and 3×10⁻⁴s⁻¹ for furin. […] Similarly, the t_{1/2} of the complex of M4R1-eglin with Kex2 was estimated to be 3 h. For complex of R4K1-eglin with furin, koff was calculated to be 2×10⁻⁴s⁻¹ implying that the koff and t_{1/2} for this complex are similar to those for the complex of R4R1-eglin with furin.

In assay [2] the target is T3, secreted, soluble furin (human, UniProt P09958 108-715, limits assumed).
T3 construct: Secreted, soluble construct; also called human furin
The experiment in a line: estimated from koff. As to the method: as §1

Assay [3] concerns the target T2, secreted, soluble Kex2. Put plainly: equilibrium enzyme inhibition. As to the method: (§2) Thus, R1-eglin refers to substitution of Arg at position P1.
(§3) Affinities of eglin variants with secreted, soluble Kex2 (hereafter “Kex2”; Brenner, C. and Fuller, R. S. (1992) Proc. Natl. Acad. Sci. USA 89: 922-926) and secreted, soluble furin (hereafter, “furin”; Bravo, D. A. et al (1994) J. Biol. Chem. 269: 25830-25837; and Komiyama & Fuller (2000) Biochemistry 39: 15156-15165) were measured by incubating variants with the enzymes (˜0.5 to 2.0 nM) for 45 min to 1 h at 21° C. in one of two enzyme assay buffers. For Kex2, the buffer was 200 mM Bistris (pH 7.27) containing 1 mM CaCl₂ and 0.1% Triton X-100; and for furin, the buffer was 20 mM NaMES (pH 7.0) containing 1 mM CaCl₂ and 0.1% Triton X-100 for furin.

Assay [4] has as its target T3, secreted, soluble furin. The experiment in a line: equilibrium enzyme inhibition. On the procedure: as §2, §3
Assay [5] concerns the target T2, secreted, soluble Kex2. The experiment in a line: enzyme inhibition, purified variant.
Assay [6] has as its target T3, secreted, soluble furin. Put plainly: enzyme inhibition, purified variant.
In assay [7] the target is T2, secreted, soluble Kex2. Put plainly: calculated from kon (progress curves) and Ka. As to the method:
as §1

Assay [8] has as its target T3, secreted, soluble furin. Put plainly: calculated from kon (progress curves) and Ka. On the procedure:
as §1

T3 sequence (P09958 108-715 limits assumed): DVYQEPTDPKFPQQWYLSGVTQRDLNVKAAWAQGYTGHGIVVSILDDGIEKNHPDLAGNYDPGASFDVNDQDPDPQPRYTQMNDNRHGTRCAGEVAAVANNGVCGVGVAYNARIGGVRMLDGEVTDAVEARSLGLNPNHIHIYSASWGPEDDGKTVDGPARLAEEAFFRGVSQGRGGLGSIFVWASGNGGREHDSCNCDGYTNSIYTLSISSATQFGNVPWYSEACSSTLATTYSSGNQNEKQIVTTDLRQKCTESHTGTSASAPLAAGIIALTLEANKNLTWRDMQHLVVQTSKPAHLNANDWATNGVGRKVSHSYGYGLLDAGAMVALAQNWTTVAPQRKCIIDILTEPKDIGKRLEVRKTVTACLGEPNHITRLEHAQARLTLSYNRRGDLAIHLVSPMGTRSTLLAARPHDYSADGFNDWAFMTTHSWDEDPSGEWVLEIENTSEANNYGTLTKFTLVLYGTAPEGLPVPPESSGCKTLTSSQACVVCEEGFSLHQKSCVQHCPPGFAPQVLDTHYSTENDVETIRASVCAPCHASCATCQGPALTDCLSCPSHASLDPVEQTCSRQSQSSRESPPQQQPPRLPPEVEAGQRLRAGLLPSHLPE

B1: R4R1-eglin (designed binder)
chain: SMGSELKSFPEVVGKTVDQAREYFTLHYPQYDVYFLPEGSRVTRDLRYNRVRVFYNPGTNVVNHVPHVG
notes: N-terminal Met removed; also called Tyr49-R4R1-; D33Y49
B1 returned a Ka with subtilisin Carlsberg of 6.5e+08 M⁻¹. Moreover, in the assay with secreted, soluble Kex2 [1], the “half-life (t1/2) of the complex” value was about 1 h. Further, the “half-life (t1/2) of the complex” value with secreted, soluble furin [2] is about 1 h. Besides, in the assay with secreted, soluble Kex2 [3], the “fold decrease in affinity relative to M4R1-eglin” value was 2.5 fold and the “fold stronger binding by Kex2 than by furin” value was about 3 fold. In the assay with secreted, soluble furin [4], the “fold higher affinity than L1-eglin” value was found to be 46000 fold and the “fold increase in affinity relative to M4R1-eglin” value was 1430 fold. Also, in the assay with secreted, soluble Kex2 [5], affinity was put at a Ki of 0.91 nM and the “Ki ratio (to R4R1- template)” value is 1. For the same molecule, in the assay with secreted, soluble furin [6], the affinity corresponds to a Ki of 2.5 nM and the “Ki ratio (to R4R1- template)” value was found to be 1. Also, the koff with secreted, soluble Kex2 [7] was 0.0002 s⁻¹. For the same molecule, in the assay with secreted, soluble furin [8], the off-rate (koff) is 0.0003 s⁻¹.

The values above are taken from patent US20050203007A1 (REGENTS OF THE UNIVERSITY OF MICHIGAN, published 2005).
